{
  "source": "IntAct's records for PubMed 19322201",
  "target": "elav1_human ELAVL1 (UniProt Q15717)",
  "data": [
    {"substance": "Polyubiquitin-C (Homo sapiens) (from UniProt P0CG48) K48R", "values": [
      {"measurement": "effect of a mutation on the interaction", "value": "disrupting interaction"}
    ]}
  ]
}
